One molecule from patent CN109810193A (SHENZHEN INST ADV TECH, dated 2019) can be followed below.

As usually defined, the Kd is a measure of binding affinity in units of concentration. Low readings indicate a tighter complex, high ones a looser complex.

One test addresses jurkat细胞表面的DR5蛋白 (UniProt O14763 56-440, limits assumed). Put plainly: cell-based or functional assay.
For a further test, the target named is T1, sDR5-Fc蛋白 (UniProt O14763 56-182, limits assumed).
T1 construct: Immunogen and BLI ligand; not shown: it was captured on AHC (Anti-hIgG Fc Capture) sensors
Put plainly: BLI (OCTET K2), sDR5-Fc 10 ug/ml captured on AHC sensors, 6C93D6 at 76-4.75 nM in solution.

For the next test, the target named is sDR5-Fc-biotin (UniProt O14763). Put plainly: competition ELISA: sDR5-Fc-biotin 7.5 ug/ml preincubated with 6C93D6 30 ug/ml, added to coated human TRAIL (5 ug/ml); Streptavidin-HRP; the OD is the remaining binding of the complex to TRAIL. For orientation: An ELISA detects its analyte on a solid surface through an enzyme-linked reagent.
A further test deals with T2, 人DR4抗原 (human, UniProt O00220 24-239, limits assumed).
T2 construct: also called death receptor 4
T2 sequence (looked up): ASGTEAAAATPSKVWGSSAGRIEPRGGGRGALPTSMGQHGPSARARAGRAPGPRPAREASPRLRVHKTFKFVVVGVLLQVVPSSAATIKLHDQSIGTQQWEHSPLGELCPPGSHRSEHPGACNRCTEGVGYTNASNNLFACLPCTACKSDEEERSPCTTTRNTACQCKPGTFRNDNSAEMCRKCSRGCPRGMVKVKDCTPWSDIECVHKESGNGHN
Put plainly: ELISA, DR4 coated, goat anti-mouse IgG-HRP, OD450.

B1: 6C93D6抗体 (抗DR5的单克隆抗体) (antibody, V domains shown)
VH: EVQLQQSGPDLVKPGASVKISCKASGYSFTGHYMHWVKQSHGQSLEWIGRVNPNNGGTGYNQKFKDKAILTVDKPSSTAYMELRSLTSEDSAVYYCARNGAYYRSDGNYFDYWGQGTTLTVSS
VL: DIVLTQSTPSLAVSLGQRATISCRASESVDSYGNSFMHWFQQKPGQPPKLLIYRASNLESGIPARFSGSGSRTDFTLTINPVEADDVATYYCQQSNEDPYTFGGGTKLEIK
notes: Mouse hybridoma monoclonal antibody purified from ascites on Protein G
On to B1, for which, in the test with jurkat细胞表面的DR5蛋白, the “诱导HepaRG细胞凋亡的EC50 (1ug/ml交联剂 anti-mouse IgG Fc antibody; MTS/PMS, A490-A630)” value turned out to be 68.5 pg/mL and the “诱导HepaRG细胞凋亡的EC50 (无交联剂; MTS/PMS, A490-A630)” value was found to be 1.1 µg/mL. The same molecule showed a Kd in the test with sDR5-Fc蛋白 of 6.77 nM. This molecule also gave an OD450 with sDR5-Fc-biotin of 0.105. Moreover, the binding result in the test with 人DR4抗原 is recorded as “no binding”.
